The text below walks through data of patent publication US20020164762.

Data set [1] has as its target T1, Acetyl-Tyr-Val-Ala-Asp-pNA.
T1 chain: YVAD

Data set [2] has as its target T2, Acetyl-Asp-Glu-Val-Asp-pNA.
T2 chain: DEVD

Substitutions are numbered along the chain they refer to. In names and notes the source's numbering stands.

B1: D381E N-His ICE (D381E-modified human interleukin-1β converting enzyme, p20/p10, with N-terminal polyhistidine tag) (protein)
chain 1: HHHHHHNPAMPTSSGSEGNVKLCSLEEAQRIWKQKSAEIYPIMDKSSRTRLALIICNEEFDSIPRRTGAEVDITGMTMLLQNLGYSVDVKKNLTASDMTTELEAFAHRPEHKTSDSTFLVFMSHGIREGICGKKHSEQVPDILQLNAIFNMLNTKNCPSLKDKPKVIIIQACRGDSPGVVWFKD
chain 2: AIKKAHIEKDFIAFCSSTPDNVSWRHPTMGSVFIGRLIEHMQEYACSCDVEEIFRKVRFSFEQPEGRAQMPTTERVTLTRCFYLFPGH
Regarding B1, in data set [1], the Km values came out at 43 µM and the Vmax values (M^-1 s^-1) turned out to be 0.19. Also, in data set [2], the Km values was 44 µM and the Vmax values (M^-1 s^-1) came out at 0.08.

B2: WT N-His ICE (wild-type human interleukin-1β converting enzyme, p20/p10, with N-terminal polyhistidine tag) (protein)
chain 1: B1 chain 1
chain 2: B1 chain 2 with E65D
As for B2, in data set [1], the Km values was determined as 26 µM and the Vmax values (M^-1 s^-1) is 0.04. Further, in data set [2], the Km values is 25 µM and the Vmax values (M^-1 s^-1) is 0.02.
